Common to all, as to assay: SPR, blank anti-hFc surface, 500 nM peptide, 25C
In assay [1] the target is human ANGPTL8 peptide (hANGPTL8 peptide, SEQ ID NO: 337) (human).
For assay [2], the target named is peptide from the N-terminal coiled-coil region of human ANGPTL3 (hANGPTL3 peptide, SEQ ID NO: 338) (human).
The target in assay [3] is peptide from the N-terminal coiled-coil region of human ANGPTL4 (hANGPTL4 peptide, SEQ ID NO: 339) (human).
peptide from the N-terminal coiled-coil region of human ANGPTL4 (hANGPTL4 peptide, SEQ ID NO: 339) (human), sequence (peptide, as listed by the source): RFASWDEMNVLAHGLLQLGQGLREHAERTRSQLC

peptide from the N-terminal coiled-coil region of human ANGPTL3 (hANGPTL3 peptide, SEQ ID NO: 338) (human), sequence (peptide, as listed by the source): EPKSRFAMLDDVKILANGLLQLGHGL
human ANGPTL8 peptide (hANGPTL8 peptide, SEQ ID NO: 337) (human), sequence (peptide, as listed by the source): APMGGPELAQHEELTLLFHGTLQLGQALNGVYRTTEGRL

The substance “monoclonal mouse anti-human Fc antibody (GE, # BR-1008-39)” displayed a 500 nM hANGPTL8 peptide Bound (RU) in assay [1] of 3 RU. Further, the 500 nM hANGPTL3 peptide Bound (RU) in assay [2] was 0 RU. Also, the 500 nM hAngPTL4 peptide Bound (RU) in assay [3] is 0 RU.
